The source of these data is patent EP3988566A1.

Experiment [1] has as its target amyloid beta 1-42 monomers (UniProt P05067). Put plainly: cell-based or functional assay.
The target of experiment [2] is amyloid beta 1-42 fibers (UniProt P05067). The experiment is described as follows: cell-based or functional assay.
Sequence of amyloid beta 1-42 fibers (P05067 672-713 limits assumed): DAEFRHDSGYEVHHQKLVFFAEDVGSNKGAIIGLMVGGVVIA

Sequence of amyloid beta 1-42 monomers (P05067 672-713 limits assumed): as above

In the case of “humanized anti-human amyloid beta monoclonal antibody hC2”, in experiment [1], the inhibition of Aβ1-42 aggregation, thioflavin T assay, antibody to Aβ1-42 molar ratio 1:10 is 80.4% and the inhibition of Aβ1-42 aggregation, thioflavin T assay, antibody to Aβ1-42 molar ratio 1:100 is 30%. Further, in experiment [2], the disaggregation of pre-aggregated Aβ1-42, thioflavin T assay, antibody to Aβ1-42 molar ratio 1:10 is 31.9% and the disaggregation of pre-aggregated Aβ1-42, thioflavin T assay, antibody to Aβ1-42 molar ratio 1:100 was determined as 23.9%.
